B1: chimera2: EC1-IC1 domains of the β1AR, TM2-TM7 domains of the mOREG, IC4 domain of the β1AR (protein)
chain: MGAGALALGASEPCNLSSAAPLPDGAATAARLLVLASPPASLLPPASEGSAPLSQQWTAGMGLLLALIVLLIVVGNVLVIVAIAKTPRLQTLTNLTRPMYFFLSHLSFVDFCYSSIVAPKMLVNLVTMNRGISFVGCLVQFFFFCTFVVTESFLLGVMAYDRFVAIRNPLLYTVAMSQRLCAMLVLGSYAWGVVCSLILTCSALNLSFYGFNMINHFFCEFSSLLSLSRSDTSVSQLLLFVFATFNEISTLLIILLSYVLIVVTILKMKSASGRRKAFSTCASHLTAITIFHGTILFLYCVPNSKNSRHTVKVASVFYTVVIPMLNPLIYSLRNKSRDFRKAFQRLLCCARRAACRRRAAHGDRPRASGCLARAGPPPSPGAPSDDDDDDAGATPPARLLEPWAGCNGGTTTVDSDSSLDEPGRQGFSSESKV
modifications: chimera 2
B2: Rho-myc-mOREG: mouse olfactory receptor for eugenol with N-terminal Rho tag and myc epitope tag (protein)
chain: MNGTEGPNFYVPFSNKTGVVEQKLISEEDLEFMTLSDGNHSGAVFTLLGFSDYPELTIPLFLIFLTIYSITVVGNIGMIVIIRINPKLHIPMYFFLSHLSFVDFCYSSIVAPKMLVNLVTMNRGISFVGCLVQFFFFCTFVVTESFLLGVMAYDRFVAIRNPLLYTVAMSQRLCAMLVLGSYAWGVVCSLILTCSALNLSFYGFNMINHFFCEFSSLLSLSRSDTSVSQLLLFVFATFNEISTLLIILLSYVLIVVTILKMKSASGRRKAFSTCASHLTAITIFHGTILFLYCVPNSKNSRHTVKVASVFYTVVIPMLNPLIYSLRNKDVKDTVKKIIGTKVYSS
modifications: Rho-myc-mOREG
B3: chimera1: IC4 domain of the Rho-myc-mOREG is substituted with the IC4 domain of the beta-1 adrenergic receptor (protein)
chain: MNGTEGPNFYVPFSNKTGVVEQKLISEEDLEFMTLSDGNHSGAVFTLLGFSDYPELTIPLFLIFLTIYSITVVGNIGMIVIIRINPKLHIPMYFFLSHLSFVDFCYSSIVAPKMLVNLVTMNRGISFVGCLVQFFFFCTFVVTESFLLGVMAYDRFVAIRNPLLYTVAMSQRLCAMLVLGSYAWGVVCSLILTCSALNLSFYGFNMINHFFCEFSSLLSLSRSDTSVSQLLLFVFATFNEISTLLIILLSYVLIVVTILKMKSASGRRKAFSTCASHLTAITIFHGTILFLYCVPNSKNSRHTVKVASVFYTVVIPMLNPLIYSLRNKDFRKAFQRLLCCARRAACRRRAAHGDRPRASGCLARAGPPPSPGAPSDDDDDDAGATPPARLLEPWAGCNGGTTTVDSDSSLDEPGRQGFSSESKV
modifications: chimera 1
notes: IC4 domain of the Rho-myc-mOREG is substituted with the IC4 domain of the beta-1 adrenergic receptor
B4: Rho-mOREG: mouse olfactory receptor for eugenol with N-terminal Rho tag (protein)
chain: MNGTEGPNFYVPFSNKTGVVMTLSDGNHSGAVFTLLGFSDYPELTIPLFLIFLTIYSITVVGNIGMIVIIRINPKLHIPMYFFLSHLSFVDFCYSSIVAPKMLVNLVTMNRGISFVGCLVQFFFFCTFVVTESFLLGVMAYDRFVAIRNPLLYTVAMSQRLCAMLVLGSYAWGVVCSLILTCSALNLSFYGFNMINHFFCEFSSLLSLSRSDTSVSQLLLFVFATFNEISTLLIILLSYVLIVVTILKMKSASGRRKAFSTCASHLTAITIFHGTILFLYCVPNSKNSRHTVKVASVFYTVVIPMLNPLIYSLRNKDVKDTVKKIIGTKVYSS
modifications: Rho-mOREG
notes: mouse olfactory receptor for eugenol with N-terminal Rho tag

Legend:
HEK293T cells [1] = assay: cAMP production by mOREG-derived receptors expressed in HEK293T cells, eugenol as agonist (Experiment 1); assay type: cell-based
Method: Subsequently, the HEK293T cells were transfected with the above-mentioned three plasmids by a lipofection method. The HEK293T cells were incubated for 48 hours, and the β1AR consisting of the protein represented by SEQ ID NO: 03 was expressed on the cell membrane of the HEK293T cell.
The abbreviation “IBMX” means 3-isobutyl-1-methylxanthine. The IBMX is one of the phosphodiesterase inhibitors. The IBMX stabilizes cAMP, which is unstable.
The expression was conducted similarly to that of the step 2 of the reference example 1 except that the plasmid (Rho-mOREG) was used instead of the plasmid (β1AR). In this way, the Rho-mOREG (SEQ ID NO: 34) was expressed on a cell membrane.
Based on the measured cAMP concentration, a concentration increase value was calculated in accordance with the following equation: (Concentration increase value)=(the cAMP concentration measured when the concentration of the eugenol was 300μM)−(the cAMP concentration measured when the concentration of the eugenol was 0 μM)

HEK293T cells [2] = assay: as above; assay type: cell-based; remark: listed apart in the source

| Molecule | concentration increase value of the cAMP (HEK293T cells [1]; eugenol 300 μM minus eugenol 0 μM) [pmol/microgram] | concentration increase value of the cAMP (HEK293T cells [2]; eugenol 30 μM) | concentration increase value of the cAMP (HEK293T cells [2]; eugenol 1000 μM) | concentration increase value of the cAMP (HEK293T cells [1]; eugenol 300 μM (Table 5)) | concentration increase value of the cAMP compared with the other olfactory receptors (in words) (HEK293T cells [2]; regardless of the concentration of eugenol, Table 5) | concentration increase value compared with the other olfactory receptors derived from the mOREG (in words) (HEK293T cells [1]; eugenol 300 μM, Table 4) | cAMP concentration (HEK293T cells [1]; eugenol 0 μM) [pmol/µg] |
| --- | --- | --- | --- | --- | --- | --- | --- |
| B1 | 0.0002 |  |  |  |  |  |  |
| B2 |  | 0.0028 | 0.0190 | 0.0060 |  |  |  |
| B3 |  | 0.0065 | 0.031 | 0.018 | greater | much greater |  |
| B4 |  | 0.0012 | 0.0026 | 0.0018 |  |  | 0.00633 |
